In publication PMC6582352:

Target: CbAgo (Clostridium butyricum, UniProt P0DYD1 1-748)
Test: single-molecule TIRM, immobilized CbAgo

CCATCTGTCTTA (ssDNA, 5'-phosphate) [siDNA 12 nt (SM013)]
binding result: binds
